According to patent publication US20160340420A1 (Novartis, published 2016):

What was measured:
biotinylated VEGF [1] = target: T1, biotinylated VEGF (human, UniProt P15692-4 27-191, limits assumed, biotinylated (sites not given)); experiment: competition ELISA with VEGFR2/Fc for biotinylated VEGF; 6% 1008, 9% sucrose, 20 mM citrate, 0.1% PS80, pH 6.25; 25 C, 8 weeks
T1 construct: The ELISA paragraph says only 'biotinylated VEGF'; also called human vascular endothelial growth factor A; VEGF-A
Experimental: (§1) The competition ELISA was used for potency testing.
(§2) The samples were stored at 2-8° C., 25° C., 40° C. and light cabinet (LC); they also went through three cycles of freeze-thaw (FT). The samples were pulled according to the schedule shown in Table 30, and analyzed by various analytical methods.

biotinylated VEGF [2] = target: T1, biotinylated VEGF; experiment: competition ELISA with VEGFR2/Fc for biotinylated VEGF; 6% 1008, 9% sucrose, 20 mM citrate, 0.1% PS80, pH 6.25; 40 C, 4 weeks
Experimental: as §1, §2

biotinylated VEGF [3] = target: T1, biotinylated VEGF; experiment: competition ELISA with VEGFR2/Fc for biotinylated VEGF; 6% 1008, 9% sucrose, 20 mM citrate, 0.1% PS80, pH 6.25; 2-8 C, 0 weeks
Experimental: as §1, §2

biotinylated VEGF [4] = target: T1, biotinylated VEGF; experiment: competition ELISA with VEGFR2/Fc for biotinylated VEGF; 6% 1008, 9% sucrose, 20 mM citrate, 0.1% PS80, pH 6.25; 2-8 C, 8 weeks
Experimental: as §1, §2

biotinylated VEGF [5] = target: T1, biotinylated VEGF; experiment: competition ELISA with VEGFR2/Fc for biotinylated VEGF; 6% 1008, 9% sucrose, 20 mM citrate, 0.1% PS80, pH 6.25; 25 C, 12 weeks
Experimental: as §1, §2

biotinylated VEGF [6] = target: T1, biotinylated VEGF; experiment: competition ELISA with VEGFR2/Fc for biotinylated VEGF; 6% 1008, 9% sucrose, 20 mM citrate, 0.1% PS80, pH 6.25; 25 C, 26 weeks
Experimental: as §1, §2

biotinylated VEGF [7] = target: T1, biotinylated VEGF; experiment: competition ELISA with VEGFR2/Fc for biotinylated VEGF; 6% 1008, 9% sucrose, 20 mM citrate, 0.1% PS80, pH 6.25; 2-8 C, 12 weeks
Experimental: as §1, §2

biotinylated VEGF [8] = target: T1, biotinylated VEGF; experiment: competition ELISA with VEGFR2/Fc for biotinylated VEGF; 6% 1008, 9% sucrose, 20 mM citrate, 0.1% PS80, pH 6.25; 2-8 C, 26 weeks
Experimental: as §1, §2

biotinylated VEGF [9] = target: T1, biotinylated VEGF; experiment: competition ELISA with VEGFR2/Fc for biotinylated VEGF; 6% 1008, 9% sucrose, 20 mM citrate, 0.1% PS80, pH 6.25; 40 C column, 0 weeks (initial)
Experimental: as §1, §2

biotinylated VEGF [10] = target: T1, biotinylated VEGF; experiment: competition ELISA with VEGFR2/Fc for biotinylated VEGF; control formulation (60 mg/ml 1008, 20 mM citrate, 0.001% PS20, pH 6.25), 5 weeks at 40 C
Experimental: as §1
The control formulation was filtered through 0.2 um syringe filter and stored at 40° C., ambient room temperature, and refrigerator. The samples were pulled at 0, 2 and 5 weeks for 40° C. samples, and 26 weeks for samples stored at ambient room temperature and refrigerator. The selected stability samples were tested for pH, osmolality, content by A280, SEC, IEX CGE and ELISA.

T1 sequence (P15692 other isoform, or with tags, fused parts or gaps limits assumed): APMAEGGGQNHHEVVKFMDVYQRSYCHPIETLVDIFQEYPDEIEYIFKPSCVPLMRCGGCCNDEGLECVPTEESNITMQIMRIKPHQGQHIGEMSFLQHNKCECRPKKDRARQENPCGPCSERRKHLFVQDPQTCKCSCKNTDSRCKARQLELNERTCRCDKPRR

ELISA (relative potency against 1008 reference standard) (biotinylated VEGF [1]): 1.1 ratio to 1008 reference standard
ELISA (relative potency against 1008 reference standard) (biotinylated VEGF [2]): 0.87 ratio to 1008 reference standard
ELISA (relative potency against 1008 reference standard) (biotinylated VEGF [3]): 0.86 ratio to 1008 reference standard
ELISA (relative potency against 1008 reference standard) (biotinylated VEGF [4]): 1.2 ratio to 1008 reference standard
ELISA (relative potency against 1008 reference standard) (biotinylated VEGF [5]): 0.92 ratio to 1008 reference standard
ELISA (relative potency against 1008 reference standard) (biotinylated VEGF [6]): 1.1 ratio to 1008 reference standard
ELISA (relative potency against 1008 reference standard) (biotinylated VEGF [7]): 0.97 ratio to 1008 reference standard
ELISA (relative potency against 1008 reference standard) (biotinylated VEGF [8]): 1.1 ratio to 1008 reference standard
ELISA (relative potency against 1008 reference standard) (biotinylated VEGF [9]): 0.86 ratio to 1008 reference standard
ELISA (relative potency against 1008 reference standard) (biotinylated VEGF [10]): 1 ratio to 1008 reference standard
B1: 1008 antibody (scFv)
scFv: MEIVMTQSPSTLSASVGDRVIITCQASEIIHSWLAWYQQKPGKAPKLLIYLASTLASGVPSRFSGSGSGAEFTLTISSLQPDDFATYYCQNVYLASTNGANFGQGTKLTVLGGGGGSGGGGSGGGGSGGGGSEVQLVESGGGLVQPGGSLRLSCTASGFSLTDYYYMTWVRQAPGKGLEWVGFIDPDDDPYYATWAKGRFTISRDNSKNTLYLQMNSLRAEDTAVYYCAGGDHNSGWGLDIWGQGTLVTVSS
notes: also called anti-VEGF antibody
